The source of these data is patent US20090074722A1, “Products and methods for treating PTP lar diseases” (MAX-PLANCK-GESELLSCHAFT ZUR, priority 1999, published 2009).

For one assay, the target named is T1, β-catenin (Homo sapiens, UniProt P35222).
T1 construct: expressed in transfected cells; host or cells: human embryonic kidney 293 cells, transient, pervanadate-treated, used as lysate; the GST-PTP LARi partner was made in E. coli
T1 sequence (P35222 2-781): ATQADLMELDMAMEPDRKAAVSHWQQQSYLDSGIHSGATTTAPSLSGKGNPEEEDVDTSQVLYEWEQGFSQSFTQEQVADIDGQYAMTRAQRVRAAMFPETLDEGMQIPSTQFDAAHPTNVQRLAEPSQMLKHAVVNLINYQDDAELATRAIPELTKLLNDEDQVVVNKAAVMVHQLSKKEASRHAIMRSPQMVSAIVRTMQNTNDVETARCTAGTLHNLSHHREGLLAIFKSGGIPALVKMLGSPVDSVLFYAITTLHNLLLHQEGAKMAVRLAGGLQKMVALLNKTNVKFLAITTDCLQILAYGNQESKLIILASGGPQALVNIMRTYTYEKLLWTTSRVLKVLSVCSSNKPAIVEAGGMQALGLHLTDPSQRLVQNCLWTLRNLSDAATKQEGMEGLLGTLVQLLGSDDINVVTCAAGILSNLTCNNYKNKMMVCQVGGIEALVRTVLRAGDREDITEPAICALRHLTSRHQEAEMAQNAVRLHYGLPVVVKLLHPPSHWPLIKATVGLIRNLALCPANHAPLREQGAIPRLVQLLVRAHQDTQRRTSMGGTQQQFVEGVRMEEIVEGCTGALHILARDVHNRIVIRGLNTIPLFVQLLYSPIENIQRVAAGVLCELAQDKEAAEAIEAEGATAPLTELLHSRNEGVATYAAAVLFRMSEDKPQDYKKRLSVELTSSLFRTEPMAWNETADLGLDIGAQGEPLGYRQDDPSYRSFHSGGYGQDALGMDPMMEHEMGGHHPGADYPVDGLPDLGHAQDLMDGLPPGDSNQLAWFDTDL
Nature of the assay: In vitro binding assay (GST pull-down), β-catenin. As to conditions: lysates of pervanadate treated 293 cells overexpressing β-catenin. Here is the method:
(§1) After 24 h of serum starvation, the cells were stimulated with pervanadate for 10 minutes before lysis. Equal amounts of lysats were incubated with the GST-PTP LAR cytoplasmic fusion protein (GST-PTP LARi) or a threefold molar excess of GST. Lysates of control vector transfected 293 cells were incubated with the GST-PTP LAR cytoplasmic fusion protein (GST-PTP LARi). Complexes were immobilized on glutathione-sepharose, and precipitates were separated by SDS-PAGE. Bound proteins were analyzed by Western blotting with an anti-β-catenin antibody (left) or an antibody against plakoglobin (right). Arrows indicate the proteins of interest. Molecular mass standards in kilodaltons are shown on the left. […]
(§2) To investigate the potential association of PTP LAR with the cadherin/catenin-complex in intact cells, subconfluent human MCF7 cells were stimulated with EGF, were lysed, and were immunoprecipitated with antibodies either against PTP LAR or the cadherin/catenin-complex. Western blotting analysis with specific antibodies to β-catenin and E-cadherin (FIG. 5A) or plakoglobin and E-cadherin (FIG. 5B) detected these proteins in anti-human PTP LAR immunoprecipitates with the monoclonal antibody 11.1A against the extracellular domain of human PTP LAR and vice versa. […]

The target of another assay is T2, plakoglobin (Homo sapiens, UniProt P14923).
T2 construct: expressed in transfected cells; host or cells: human embryonic kidney 293 cells, transient, pervanadate-treated, used as lysate; the GST-PTP LARi partner was made in E. coli
T2 sequence (P14923 1-745): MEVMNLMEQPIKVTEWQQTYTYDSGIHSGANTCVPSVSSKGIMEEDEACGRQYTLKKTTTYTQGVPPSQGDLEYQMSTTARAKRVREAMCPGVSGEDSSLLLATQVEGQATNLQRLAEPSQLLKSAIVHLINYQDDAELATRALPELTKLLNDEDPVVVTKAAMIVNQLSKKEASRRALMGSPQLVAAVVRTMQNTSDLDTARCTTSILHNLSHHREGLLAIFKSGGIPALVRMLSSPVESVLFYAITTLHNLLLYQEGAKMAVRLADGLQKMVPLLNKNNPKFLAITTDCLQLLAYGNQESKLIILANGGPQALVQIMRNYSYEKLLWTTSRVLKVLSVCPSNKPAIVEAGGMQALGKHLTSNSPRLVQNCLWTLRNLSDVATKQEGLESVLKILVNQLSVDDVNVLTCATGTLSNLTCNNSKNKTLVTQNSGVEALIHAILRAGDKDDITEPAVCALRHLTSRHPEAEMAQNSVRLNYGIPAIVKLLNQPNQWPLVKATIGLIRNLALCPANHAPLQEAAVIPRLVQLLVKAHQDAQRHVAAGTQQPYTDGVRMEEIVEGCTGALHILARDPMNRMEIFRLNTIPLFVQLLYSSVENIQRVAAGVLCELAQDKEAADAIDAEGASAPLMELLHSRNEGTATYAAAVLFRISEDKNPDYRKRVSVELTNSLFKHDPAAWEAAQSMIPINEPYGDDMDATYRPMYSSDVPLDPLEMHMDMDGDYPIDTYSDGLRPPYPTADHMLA
Nature of the assay: In vitro binding assay (GST pull-down), plakoglobin. The conditions noted are these: lysates of pervanadate treated 293 cells overexpressing plakoglobin. Here is the method: as §1, §2

B1: GST-PTP LAR cytoplasmic: GST fusion protein comprising the entire cytoplasmic domain (amino acids 1259-1881) of human PTP LAR (protein)
chain: PEMLWVTGPVLAVILIILIVIAILLFKRKRTHSPSSKDEQSIGLKDSLLAHSSDPVEMRRLNYQTPGMRDHPPIPITDLADNIERLKANDGLKFSQEYESIDPGQQFTWENSNLEVNKPKNRYANVIAYDHSRVILTSIDGVPGSDYINANYIDGYRKQNAYIATQGPLPETMGDFWRMVWEQRTATVVMMTRLEEKSRVKCDQYWPARGTETCGLIQVTLLDTVELATYTVRTFALHKSGSSEKRELRQFQFMAWPDHGVPEYPTPILAFLRRVKACNPLDAGPMVVHCSAGVGRTGCFIVIDAMLERMKHEKTVDIYGHVTCMRSQRNYMVQTEDQYVFIHEALLEAATCGHTEVPARNLYAHIQKLGQVPPGESVTAMELEFKLLASSKAHTSRFISANLPCNKFKNRLVNIMPYELTRVCLQPIRGVEGSDYINASFLDGYRQQKAYIATQGPLAESTEDFWRMLWEHNSTIIVMLTKLREMGREKCHQYWPAERSARYQYFVVDPMAEYNMPQYILREFKVTDARDGQSRTIRQFQFTDWPEQGVPKTGEGFIDFIGQVHKTKEQFGQDGPITVHCSAGVGRTGVFITLSIVLERMRYEGVVDMFQTVKTLRTQRPAM
As for B1, in the assay with β-catenin, the “association with β-catenin” value is “associate specifically”. Further, the association with plakoglobin result with plakoglobin is given as “associate specifically”.
